This note sets out measurements from patent US20080058263A1 (published 2008).

What all share (test): receptor-Fc IP
One assay deals with T1, VEGFR-2-Fc (UniProt P35968 20-322).
T1 construct: domain: first 3 Ig domains; conditioned supernatant of 293T cells; also called VEGFR-2-Fc fusion protein; not shown: Fc fragment of the pIg vector
The gist of the method:
(§1)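 fusion protein at 400 ng/ml in an IP mix (PBS, 1.5% BSA, 0.06% Tween 20, 3 μg/ml heparin) was combined with sample supernatant at a 1:2 ratio. Bound ligand captured by immunoprecipitation with pentahistidine antibody.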

A further assay has as its target T2, VEGFR-3-Fc (UniProt P35916 25-328).
T2 construct: domain: first three Ig domains; conditioned supernatant of 293T cells; also called VEGFR-3-Fc fusion protein; not shown: Fc fragment of the pIg vector
T2 sequence (looked up): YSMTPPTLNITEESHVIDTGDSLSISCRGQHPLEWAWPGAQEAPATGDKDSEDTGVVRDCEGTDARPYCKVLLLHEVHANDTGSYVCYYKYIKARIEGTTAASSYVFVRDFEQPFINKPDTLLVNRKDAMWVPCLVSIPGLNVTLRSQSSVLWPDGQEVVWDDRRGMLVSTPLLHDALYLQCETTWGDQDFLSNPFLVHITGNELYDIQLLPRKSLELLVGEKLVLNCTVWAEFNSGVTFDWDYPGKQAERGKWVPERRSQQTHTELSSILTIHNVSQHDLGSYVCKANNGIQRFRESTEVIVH
The essentials: as §1

The target of another assay is T3, VEGFR-1-Fc (UniProt P17948 27-338).
T3 construct: domain: first three Ig domains; expressed in Drosophila S2 cells, purified on Protein A sepharose; also called VEGFR-1-Fc fusion protein; not shown: Fc fragment from the Signal-pIgPlus vector
T3 sequence (P17948 27-338): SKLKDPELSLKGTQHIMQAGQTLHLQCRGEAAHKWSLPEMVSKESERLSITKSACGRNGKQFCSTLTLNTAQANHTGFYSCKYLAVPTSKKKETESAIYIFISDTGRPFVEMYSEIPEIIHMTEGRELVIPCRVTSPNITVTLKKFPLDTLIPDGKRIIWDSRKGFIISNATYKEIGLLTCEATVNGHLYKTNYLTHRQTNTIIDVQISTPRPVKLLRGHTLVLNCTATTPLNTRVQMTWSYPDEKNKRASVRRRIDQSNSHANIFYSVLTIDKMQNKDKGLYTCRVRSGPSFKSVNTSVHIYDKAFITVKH
The gist of the method: as §1

T1 sequence (P35968 20-322): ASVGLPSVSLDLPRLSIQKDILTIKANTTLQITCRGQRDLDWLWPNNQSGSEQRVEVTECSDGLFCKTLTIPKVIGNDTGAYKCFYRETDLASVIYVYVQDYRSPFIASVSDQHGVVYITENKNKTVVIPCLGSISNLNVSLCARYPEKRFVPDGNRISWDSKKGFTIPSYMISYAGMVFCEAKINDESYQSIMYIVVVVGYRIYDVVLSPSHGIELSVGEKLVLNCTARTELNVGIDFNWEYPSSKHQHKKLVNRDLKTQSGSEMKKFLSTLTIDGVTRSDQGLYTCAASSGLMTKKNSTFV

B1: 32-15 (ligand)
chain: GQNHHEVVKSIDNEWRKTQCMPIETLVDIFQEFGVATNTFFKPPCVSVYRCGGCCNSEGLQCVPTEESNITMQIMRITVPLSQGPKPVTISFANHTSCRCMSKLD
Take B1: the binding result with VEGFR-2-Fc is “no binding”; with VEGFR-3-Fc it was “binds”; with VEGFR-1-Fc it was “no binding”.

B2: 52-15 (ligand)
chain: AHYNTEILKSIDNEWRKTQCMPIETLVDIFQEFGVATNTFFKPPCVSVYRCGGCCNSEGLQCVPTEESNITMQIMRITVPLSQGPKPVTISFANHTSCRCMSKLD
notes: clone entry
On to B2, for which the figures for the binding result in the assay with VEGFR-2-Fc, in the assay with VEGFR-3-Fc and in the assay with VEGFR-1-Fc were “no binding”, “binds” and “no binding”, respectively.

B3: 53-1 (ligand)
chain: AHYNTEILKSIDNEWRKTQCMPIETLVDIFQEYPDEIEYIFKPPCVSVYRCGGCCNDEGLECVPTEESNITMQIMRIKPHQGQHIGEMSFLQHNKCECRPKKD
In the case of B3, the binding result with VEGFR-2-Fc is on record as “binds”; with VEGFR-3-Fc, “no binding”; in the assay with VEGFR-1-Fc, “no binding”.

B4: 53-7 (ligand)
chain: AHYNTEILKSIDNEWRKTQCMPIETLVDIFQEYPDEIEYIFKPPCVSVYRCGGCCNSEGLQCVPTEESNITMQIMRIKPHQGQHIGEMSFANHTSCRCMSKLD
Take B4: the binding result in the assay with VEGFR-2-Fc was “binds”; with VEGFR-3-Fc, “no binding”; with VEGFR-1-Fc, “no binding”.

B5: 83-15 (ligand)
chain: AHYNTEILKFMDVYQRSYCHPIETLVDIFQEYPDEIEYIFKPPCVSVYRCGGCCNSEGLQCVPTEESNITMQIMRITVPLSQGPKPVTISFANHTSCRCMSKLDL
notes: clone entry
For B5, the binding result with VEGFR-2-Fc is on record as “binds”; with VEGFR-3-Fc, “no binding”; in the assay with VEGFR-1-Fc it was “binds”.

B6: 52-9 (ligand)
chain: AHYNTEILKSIDNEWRKTQCMPIETLVDIFQEFGVATNTFFKPPCVSVYRCGGCCNDEGLECVPTEESNITMQIMRITVPLSQGPKPVTISFLQHNKCECRPKKD
Consider B6, for which the binding result in the assay with VEGFR-2-Fc is reported as “no binding”; with VEGFR-3-Fc, “binds”; with VEGFR-1-Fc, “no binding”.

B7: 52-11 (ligand)
chain: AHYNTEILKSIDNEWRKTQCMPIETLVDIFQEFGVATNTFFKPPCVSVYRCGGCCNSEGLQCVPTEESNITMQIMRITVPLSQGPKPVTISFLQHNKCECRPKKD
In the case of B7, the figures for the binding result with VEGFR-2-Fc, with VEGFR-3-Fc and in the assay with VEGFR-1-Fc were “no binding”, “binds” and “no binding”, respectively.

B8: 83-11 (ligand)
chain: AHYNTEILKFMDVYQRSYCHPIETLVDIFQEYPDEIEYIFKPPCVSVYRCGGCCNSEGLQCVPTEESNITMQIMRITVPLSQGPKPVTISFLQHNKCECRPKKD
Regarding B8, the binding result was “binds” with VEGFR-2-Fc, “no binding” in the assay with VEGFR-3-Fc and “binds” with VEGFR-1-Fc.

B9: 83-13 (ligand)
chain: AHYNTEILKFMDVYQRSYCHPIETLVDIFQEYPDEIEYIFKPPCVSVYRCGGCCNDEGLECVPTEESNITMQIMRITVPLSQGPKPVTISFANHTSCRCMSKLD
Take B9: the binding result is “no binding” with VEGFR-2-Fc, “no binding” with VEGFR-3-Fc and “binds” with VEGFR-1-Fc.

B10: 53-3 (ligand)
chain: AHYNTEILKSIDNEWRKTQCMPIETLVDIFQEYPDEIEYIFKPPCVSVYRCGGCCNSEGLQCVPTEESNITMQIMRIKPHQGQHIGEMSFLQHNKCECRPKKDLV
notes: clone entry
On to B10, for which the binding result with VEGFR-2-Fc, with VEGFR-3-Fc and in the assay with VEGFR-1-Fc was “binds” in each case.

B11: 72-9 (ligand)
chain: GQNHHEVVKSIDNEWRKTQCMPREVCIDVGKEFGVATNTFFKPPCVSVYRCGGCCNDEGLECVPTEESNITMQIMRITVPLSQGPKPVTISFLQHNKCECRPKKD
As to B11, the binding result in the assay with VEGFR-2-Fc, with VEGFR-3-Fc and with VEGFR-1-Fc was “no binding” throughout.

B12: 74-13 (ligand)
chain: GQNHHEVVKSIDNEWRKTQCMPREVCIDVGKEFGVATNTFFKPSCVPLMRCGGCCNDEGLECVPTEESNITMQIMRITVPLSQGPKPVTISFANHTSCRCMSKLD
Turning to B12, the binding result with VEGFR-2-Fc, in the assay with VEGFR-3-Fc and with VEGFR-1-Fc was “no binding” throughout.

B13: 34-9 (ligand)
chain: GQNHHEVVKSIDNEWRKTQCMPIETLVDIFQEFGVATNTFFKPSCVPLMRCGGCCNDEGLECVPTEESNITMQIMRITVPLSQGPKPVTISFLQHNKCECRPKKD
As for B13, the binding result with VEGFR-2-Fc, with VEGFR-3-Fc and with VEGFR-1-Fc was “no binding” throughout.

B14: 72-15 (ligand)
chain: GQNHHEVVKSIDNEWRKTQCMPREVCIDVGKEFGVATNTFFKPPCVSVYRCGGCCNSEGLQCVPTEESNITMQIMRITVPLSQGPKPVTISFANHTSCRCMSKLD
In the case of B14, the binding result with VEGFR-2-Fc, with VEGFR-3-Fc and with VEGFR-1-Fc was “no binding” in each case.

B15: 71-9 (ligand)
chain: GQNHHEVVKSIDNEWRKTQCMPREVCIDVGKEYPDEIEYIFKPSCVPLMRCGGCCNDEGLECVPTEESNITMQIMRITVPLSQGPKPVTISFLQHNKCECRPKKD
For the molecule B15, the binding result with VEGFR-2-Fc, with VEGFR-3-Fc and with VEGFR-1-Fc was “no binding” each time.

B16: 22-11 (ligand)
chain: AHYNTEILKSIDNEWRKTQCMPREVCIDVGKEFGVATNTFFKPPCVSVYRCGGCCNSEGLQCVPTEESNITMQIMRITVPLSQGPKPVTISFLQHNKCECRPKKD
Regarding B16, the binding result with VEGFR-2-Fc, with VEGFR-3-Fc and in the assay with VEGFR-1-Fc was “no binding” throughout.

B17: 32-11 (ligand)
chain: GQNHHEVVKSIDNEWRKTQCMPIETLVDIFQEFGVATNTFFKPPCVSVYRCGGCCNSEGLQCVPTEESNITMQIMRITVPLSQGPKPVTISFLQHNKCECRPKKD
Take B17: the binding result is listed as “no binding” with VEGFR-2-Fc, “binds” with VEGFR-3-Fc and “no binding” with VEGFR-1-Fc.

B18: 72-13 (ligand)
chain: GQNHHEVVKSIDNEWRKTQCMPREVCIDVGKEFGVATNTFFKPPCVSVYRCGGCCNDEGLECVPTEESNITMQIMRITVPLSQGPKPVTISFANHTSCRCMSKLD
Consider B18, for which the binding result with VEGFR-2-Fc, with VEGFR-3-Fc and with VEGFR-1-Fc was “no binding” in each case.

B19: 22-9 (ligand)
chain: AHYNTEILKSIDNEWRKTQCMPREVCIDVGKEFGVATNTFFKPPCVSVYRCGGCCNDEGLECVPTEESNITMQIMRITVPLSQGPKPVTISFLQHNKCECRPKKD
As to B19, the binding result with VEGFR-2-Fc, in the assay with VEGFR-3-Fc and with VEGFR-1-Fc was “no binding” in each case.

B20: 32-9 (ligand)
chain: GQNHHEVVKSIDNEWRKTQCMPIETLVDIFQEFGVATNTFFKPPCVSVYRCGGCCNDEGLECVPTEESNITMQIMRITVPLSQGPKPVTISFLQHNKCECRPKKD
Turning to B20, the binding result was “no binding” with VEGFR-2-Fc, “binds” with VEGFR-3-Fc and “no binding” with VEGFR-1-Fc.

B21: 24-9 (ligand)
chain: AHYNTEILKSIDNEWRKTQCMPREVCIDVGKEFGVATNTFFKPSCVPLMRCGGCCNDEGLECVPTEESNITMQIMRITVPLSQGPKPVTISFLQHNKCECRPKKD
For B21, the binding result with VEGFR-2-Fc, in the assay with VEGFR-3-Fc and with VEGFR-1-Fc was “no binding” in each case.

B22: 32-14 (ligand)
chain: GQNHHEVVKSIDNEWRKTQCMPIETLVDIFQEFGVATNTFFKPPCVSVYRCGGCCNDEGLECMNTSTSYLSKTLFEITVPLSQGPKPVTISFANHTSCRCMSKLD
notes: clone entry
In the case of B22, the binding result with VEGFR-2-Fc is given as “no binding”; with VEGFR-3-Fc it was “binds”; with VEGFR-1-Fc, “no binding”.

B23: 32-16 (ligand)
chain: GQNHHEVVKSIDNEWRKTQCMPIETLVDIFQEFGVATNTFFKPPCVSVYRCGGCCNSEGLQCMNTSTSYLSKTLFEITVPLSQGPKPVTISFANHTSCRCMSKLD
Regarding B23, the values for the binding result in the assay with VEGFR-2-Fc, with VEGFR-3-Fc and with VEGFR-1-Fc were “no binding”, “binds” and “no binding”, respectively.
